According to patent US20220034883A1 (SYSMEX, published 2022):

Target: T1, His-tagged recombinant N protein of SARS-CoV (SARS-CoV, UniProt P59595 1-422)
T1 construct: mature
Assay: ELISA screening of hybridomas

T1 sequence (P59595 1-422, tags left off): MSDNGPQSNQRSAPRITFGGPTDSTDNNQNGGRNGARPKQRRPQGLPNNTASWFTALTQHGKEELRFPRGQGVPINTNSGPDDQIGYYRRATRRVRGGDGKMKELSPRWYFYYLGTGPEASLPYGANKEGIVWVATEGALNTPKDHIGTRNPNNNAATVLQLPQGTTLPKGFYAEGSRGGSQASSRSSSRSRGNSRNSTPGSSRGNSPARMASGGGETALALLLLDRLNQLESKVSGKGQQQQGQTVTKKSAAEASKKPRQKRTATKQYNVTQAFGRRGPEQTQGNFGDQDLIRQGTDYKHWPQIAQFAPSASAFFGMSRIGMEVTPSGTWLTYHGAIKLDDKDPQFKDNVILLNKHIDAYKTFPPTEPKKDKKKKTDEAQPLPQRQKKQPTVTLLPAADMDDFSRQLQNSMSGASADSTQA

B1: first antibody (monoclonal antibody purified from the culture supernatant of the hybridoma of Clone 1) (antibody, V domains shown)
VH: QVTLKESGPGILQPSQTLSLTCSFSGFSLSTSGTGVSWIRQPSGKGLEWLAHIYWDDDKRYNPSLKSRLTVSKDTSGNQVFLKITSVDTADTATYYCARSNYGYDLDYWGQGTTLTVSS
VL: DIVMTQSQKFMSTSVGDRVSVTCKASQNVGTNVVWYQQKPGQSPKALIYSASYRYSGVPDRFTGSGSGTDFTLTISNVQSEDLAEYFCQQYNNYPLTFGSGTKLEIKR
notes: also called capture antibody
- binding result: binds
